Results as given in patent US7888372B2, “Compositions and methods for modulating bone mineral deposition” (National Institutes of Health (NIH), priority 2001, dated 2011).

Experiments:
[1] = system: wild-type osteoblastic cells; test: Predicted effect of factors expressed or delivered on PPi and mRNA expression; type: cell-based, mouse
Excerpt: In order to test the hypothesis that PPi itself represents the signaling molecule that influences the transcription of the TNAP, PC-1 and ANK genes, we examine the levels of TNAP, PC-1 and ANK in calvarial tissue and osteoblasts from the mutant mouse lines and in the rescued mouse strains and by measure mRNA for TNAP, PC-1 and ANK by Northern blot analysis. Subsequently, cells from the different mutant strains and rescued mice are exposed to medium with different concentrations of PPi, or non-hydrolyzable analogues (phosphocitrate and the biphosphonate etidronate), for various time points and tested for changes in mRNA levels of the three genes. In addition, in vitro cytoplasmic and nuclear microinjection of PPi and analogues into osteoblastic cells are performed to examine the effect of intracellular PPi on these same genes. Measurements of mRNA changes are monitored by real-time RT-PCR using an ABI 7700 Sequence Detection system to facilitate these measurements.
These evaluations are done on osteoblastic cells from the different mutant mice and cross-bred strains with or without rescue of the deficient molecule after specifically transfecting the respective cDNAs back into the deficient cells. As a control for the transfections, we employ mutant enzyme-deficient PC-1 (Johnson et al., J. Bone Miner. Res. 14:883-892, 1999; Johnson et al., Arthritis Rheum. 42:1986-1997, 1999), mutant ANK (Ho et al., Science 289:265-270, 2000), and mutant enzyme-deficient TNAP (Wennberg et al., J. Bone Mineral Res., 2000). The table summarizes the experiments to be performed and the results that are expected.

TNAP-/- mice = test: Administration of exogenous pyridoxal HCl to TNAP-/- mice; type: in vivo, mouse
Excerpt: At the time that we were developing the TNAP knock-out mice, Waymire et al. (Nature Genet. 11:45-51, 1995) independently reported the production of TNAP knock-out mice. […] These studies provided support to the hypothesis, set forth by Michael P. Whyte in his studies of human hypophosphatasia, that pyridoxal-5′-phosphate (vitamin B6) might be a natural substrate of TNAP. The rationale for this hypothesis is that pyridoxal-5′-phosphate cannot easily traverse biological membranes but that the related, more hydrophobic derivatives, pyridoxal and pyridoxamine can do so with much better kinetics. Thus, the presumption is that the cells that are deficient in TNAP cannot dephosphorylate pyridoxal-5′-phosphate on the outside of the cells leading to an intracellular deficiency of Vitamin B6 (Whyte, Endocrine Rev. 15:439-461, 1994). […] Control mice fed a vitamin B6-depleted diet developed epileptic seizures indistinguishable from those observed in TNAP−/− mice, abnormal apoptosis in the thymus and thinning of the nerve roots.

Molecule | Predicted effect on PPi, Extracellular [1] | Predicted effect on PPi, Intracellular [1] | Predicted effect on mRNA expression, ANK [1] | Predicted effect on mRNA expression, TNAP [1] | episodes of apnea (TNAP-/- mice) | hypomineralization and accumulation of osteoid (TNAP-/- mice) | life span (TNAP-/- mice) | myelinization of lumbar nerve roots (TNAP-/- mice) | onset of epileptic attacks (TNAP-/- mice) | Predicted effect on mRNA expression, PC-1 [1]
ANK: factor expressed in wild-type osteoblastic cells by transfecting the cDNA (Table 1) | ⇑ | ↓ | ↓ | ⇑ | – | – | – | – | – | –
Cc1ncc(CO)c(C=O)c1O.Cl [pyridoxal HCl] | – | – | – | – | episodes of apnea ceased | continued to worsen with age | increased the life span | improved | delayed the onset of epileptic attacks | –
iPPiase: inorganic pyrophosphatase, factor expressed in wild-type osteoblastic cells (Table 1) (protein, UniProt Q15181 2-289, looked up) Inorganic pyrophosphatase: SGFSTEERAAPFSLEYRVFLKNEKGQYISPFHDIPIYADKDVFHMVVEVPRWSNAKMEIATKDPLNPIKQDVKKGKLRYVANLFPYKGYIWNYGAIPQTWEDPGHNDKHTGCCGDNDPIDVCEIGSKVCARGEIIGVKVLGILAMIDEGETDWKVIAINVDDPDAANYNDINDVKRLKPGYLEATVDWFRRYKVPDGKPENEFAFNAEFKDKDFAIDIIKSTHDHWKALVTKKTNGKGISCMNTTLSESPFKCDPDAARAIVDALPPPCESACTVPTDVDKWFHHQKN | = | ↓ | ⇑ | ↓ | – | – | – | – | – | ⇑
TNAP: factor expressed in wild-type osteoblastic cells by transfecting the cDNA (Table 1) (protein) FVPEKERDPSYWRQQAQETLKNALKLQKLNTNVAKNVIMFLGDGMGVSTVTAARILKGQLHHNTGEETRLEMDKFPFVALSKTYNTNAQVPDSAGTATAYLCGVKANEGTVGVSAATERTRCNTTQGNEVTSILRWAKDAGKSVGIVTTTRVNHATPSAAYAHSADRDWYSDNEMPPEALSQGCKDIAYQLMHNIKDIDVIMGGGRKYMYPKNRTDVEYELDEKARGTRLDGLDLISIWKSFKPRHKHSHYVWNRTELLALDPSRVDYLLGLFEPGDMQYELNRNNLTDPSLSEMVEVALRILTKNLKGFFLLVEGGRIDHGHHEGKAKQALHEAVEMDQAIGKAGAMTSQKDTLTVVTADHSHVFTFGGYTPRGNSIFGLAPMVSDTDKKPFTAILYGNGPGYKVVDGERENVSMVDYAHNNYQAQSAVPLRHETHGGEDVAVFAKGPMAHLLHGVHEQNYIPHVMAYASCIGANLDHCAWAG | ↓ | ↓ | ⇑ | – | – | – | – | – | – | ⇑
PC-1: factor expressed in wild-type osteoblastic cells by transfecting the cDNA (Table 1) (protein) MERDGDQAGHGPRHGSAGNGRELESPAAASLLAPMDLGEEPLEKAERARPAKDPNTYKVLSLVLSVCVLTTILGCIFGLKPSCAKEVKSCKGRCFERTFSNCRCDAACVSLGNCCLDFQETCVEPTHIWTCNKFRCGEKRLSRFVCSCADDCKTHNDCCINYSSVCQDKKSWVEETCESIDTPECPAEFESPPTLLFSLDGFRAEYLHTWGGLLPVISKLKNCGTYTKNMRPMYPTKTFPNHYSIVTGLYPESHGIIDNKMYDPKMNASFSLKSKEKFNPLWYKGQPIWVTANHQEVKSGTYFWPGSDVEIDGILPDIYKVYNGSVPFEERILAVLEWLQLPSHERPHFYTLYLEEPDSSGHSHGPVSSEVIKALQKVDRLVGMLMDGLKDLGLDKCLNLILISDHGMEQGSCKKYVYLNKYLGDVNNVKVVYGPAARLRPTDVPETYYSFNYEALAKNLSCREPNQHFRPYLKPFLPKRLHFAKSDRIEPLTFYLDPQWQLALNPSERKYCGSGFHGSDNLFSNMQALFIGYGPAFKHGAEVDSFENIEVYNLMCDLLGLIPAPNNGSHGSLNHLLKKPIYNPSHPKEEGFLSQCPIKSTSNDLGCTCDPWIVPIKDFEKQLNLTTEDVDDIYHMTVPYGRPRILLKQHHVCLLQQQQFLTGYSLDLLMPLWASYTFLRNDQFSRDDFSNCLYQDLRIPLSPVHKCSYYKSNSKLSYGFLTPPRLNRVSNHIYSEALLTSNIVPMYQSFQVIWHYLHDTLLQRYAHERNGINVVSGPVFDFDYDGRYDSLEILKQNSRVIRSQEILIPTHFFIVLTSCKQLSETPLECSALESSAYILPHRPDNIESCTHGKRESSWVEELLTLHRARVTDVELITGLSFYQDRQESVSELLRLKTHLPIFSQED | ⇑ | ⇑ | – | ⇑ | – | – | – | – | – | ↓
